Molecular target: Recombinant HLA-G antigen (human) (UniProt P17693)
Experiment: monoclonal phage ELISA, Fab on phage, anti-M13 HRP (selection threshold)

B1: T22A4 (Fab clone displayed on phage) (Fab, V domains shown)
VH: EVQLVESGGNWVQPGGSLRLSCAASGFSFRSYAMSWVRQAPGKGLEWVSSISGSGNSELYAGSVKGRFTISRDNSKNTLSLQLHSLRAEDTAMYYCAKFSAAVGFLPDYFDSWGQGTLVTVSS
VL: ELTLTQSPSSLSASVGDRVTITCQASHDISKYLNWYQQKSGKAPKLLIYDASNLETGVPSRFSGSGSGTDFTLTISSLQPEDFATYYCQQSYRTPLTFGGGTKLEIK
- absorbance (OD450): > 0.4 OD450

B2: T23D5 (Fab clone displayed on phage) (Fab, V domains shown)
VH: QVQLQESGPGLVKPSETLSLTCTVSGGSIDRSSHYWGWIRQPPGKGLEWLGSIYYSGITYYNPSLKSRVTISVDTSRNQFSLTLSSVTAADTAVYYCARHGSYDSWAGRYKWDRFDPWGQGTPVTVSS
VL: ELQMTQSPSSLSASVGDRVTITCQASHDISKYLNWYQQKSGKAPKLLIYDASNLETGVPSRFSGSGSGTDFTLTISSLQPEDFATYYCQQSYSTPLTFGGGTKVEIK
- absorbance (OD450): > 0.4 OD450

Reference: patent EP4793288A1
